PMC9371665

Molecular target: TnsB transposase of the type V-K CAST element from Scytonema hofmanni (ShCAST), full length (Scytonema hofmanni)
Experiment: cryo-EM structure; TnsB strand-transfer complex: strand-transfer DNA and purified TnsB mixed 1:6, 26 mM Hepes pH 7.5, 5 mM Tris-HCl pH 7.5, 20 mM KCl, 100 mM NaCl, 0.2 mM MgCl2, 15 mM MgOAc2, 37 °C 40 min, then size-exclusion chromatography; C2 symmetry imposed; 3.7 Å

**Q.** “TnsB transposase of the type V-K CAST element from Scytonema hofmanni (ShCAST), full length (enzyme)” was tested. Which stoichiometry N did it give?
**A.** The stoichiometry N was 4.
